Data as given in the supplement of paper PMC11246515.
± gives the standard deviation of the averaged measurements.

Assay: total protein half-life in vivo (active degradation + dilution); higher = more stable protein
[1] = wild type E. coli NCM3722, growth: P-lim chemostat, doubling time 6 h
[2] = E. coli NCM3722 delta-clpP delta-lon delta-hslV, growth: N-lim chemostat, doubling time 6 h
[3] = E. coli NCM3722 delta-clpP, growth: N-lim chemostat, doubling time 6 h
[4] = E. coli NCM3722 delta-hslV, growth: N-lim chemostat, doubling time 6 h
[5] = E. coli NCM3722 delta-lon, growth: N-lim chemostat, doubling time 6 h
[6] = E. coli NCM3722 delta-smpB, growth: N-lim chemostat, doubling time 6 h
[7] = wild type E. coli NCM3722, growth: C-lim chemostat, doubling time 3 h
[8] = wild type E. coli NCM3722, growth: C-lim chemostat, doubling time 6 h
[9] = wild type E. coli NCM3722, growth: C-lim chemostat, doubling time 12 h
[10] = wild type E. coli NCM3722, growth: N-lim chemostat, doubling time 6 h
[11] = wild type E. coli NCM3722, growth: N-lim chemostat, doubling time 12 h
[12] = wild type E. coli NCM3722, growth: P-lim chemostat, doubling time 12 h

| Sequence | total protein half-life in vivo [1] | total protein half-life in vivo [2] | total protein half-life in vivo [3] | total protein half-life in vivo [4] | total protein half-life in vivo [5] | total protein half-life in vivo [6] | total protein half-life in vivo [7] | total protein half-life in vivo [8] | total protein half-life in vivo [9] | total protein half-life in vivo [10] | total protein half-life in vivo [11] | total protein half-life in vivo [12] |
| --- | --- | --- | --- | --- | --- | --- | --- | --- | --- | --- | --- | --- |
| MSDLLCSAKLGAMTLALLLSATSLSALASVTPDRTRLIFNESDKSISVTLRNNDPKLPYLAQSWIEDEKGNKITSPLTVLPPVQRIDSMMNGQVKVQGMPDINKLPADRESMFYFNVREIPPKSNKPNTLQIALQTRIKLFWRPKALEKVSMKSPWQHKVTLTRSGQAFTVNNPTPYYVIISNASAQKNGNPAAGFSPLVIEPKTTVPLNVKMDSVPVLTYVNDFGARMPLFFQCNGNSCQVDEEQSRKG | 4.16 h | – | – | – | – | – | – | – | – | – | – | – |
| MTQQITLIKDKILSDNYFTLHNITYDLTRKDGEVIRHKREVYDRGNGATILLYNTKKKTVVLIRQFRVATWVNGNESGQLIESCAGLLDNDEPEVCIRKEAIEETGYEVGEVRKLFELYMSPGGVTELIHFFIAEYSDNQRANAGGGVEDEDIEVLELPFSQALEMIKTGEIRDGKTVLLLNYLQTSHLMD | 2.31 h | 4.25 h | 3.023 ± 0.017 h | 2.96 ± 0.066 h | 4.03 ± 0.41 h | 3.07 ± 1 h | 2.824 ± 0.026 h | 4.44 h | 6.27 ± 2.4 h | 3.15 ± 0.25 h | 4.71 h | 4.47 ± 0.2 h |
| MAGLPNSSNALQQWHHLFEAEGTKRSPQAQQHLQQLLRTGLPTRKHENWKYTPLEGLINSQFVSIAGEISPQQRDALALTLDSVRLVFVDGRYVPALSDATEGSGYEVSINDDRQGLPDAIQAEVFLHLTESLAQSVTHIAVKRGQRPAKPLLLMHITQGVAGEEVNTAHYRHHLDLAEGAEATVIEHFVSLNDARHFTGARFTINVAANAHLQHIKLAFENPLSHHFAHNDLLLAEDATAFSHSFLLGGAVLRHNTSTQLNGENSTLRINSLAMPVKNEVCDTRTWLEHNKGFCNSRQLHKTIVSDKGRAVFNGLINVAQHAIKTDGQMTNNNLLMGKLAEVDTKPQLEIYADDVKCSHGATVGRIDDEQIFYLRSRGINQQDAQQMIIYAFAAELTEALRDEGLKQQVLARIGQRLPGGAR | 3.2 ± 0.23 h | 4.76 ± 0.4 h | 3.22 ± 0.11 h | 2.1 ± 0.063 h | 3.45 ± 1.1 h | 1.99 ± 0.24 h | 2.2 ± 0.22 h | 3.91 ± 0.52 h | 5.81 ± 0.08 h | 2.37 ± 0.38 h | 2.817 ± 0.0043 h | 6.04 ± 0.41 h |
| MKRKVLLIPLIIFLAIAAALLWQLARNAEGDDPTNLESALIGKPVPKFRLESLDNPGQFYQADVLTQGKPVLLNVWATWCPTCRAEHQYLNQLSAQGIRVVGMNYKDDRQKAISWLKELGNPYALSLFDGDGMLGLDLGVYGAPETFLIDGNGIIRYRHAGDLNPRVWEEEIKPLWEKYSKEAAQ [P0AA86] | 5.3 h | 6.39 ± 0.1 h | – | – | – | 6.09 ± 0.34 h | 3 ± 0.084 h | 6.112 ± 0.034 h | 13.3 ± 1.2 h | 6.16 ± 0.32 h | – | 12.5 ± 1.7 h |
| MTMKKLLIIILPVLLSGCSAFNQLVERMQTDTLEYQCDEKPLTVKLNNPRQEVSFVYDNQLLHLKQGISASGARYTDGIYVFWSKGDEATVYKRDRIVLNNCQLQNPQR | 6.32 ± 0.75 h | 5.8 ± 0.46 h | 6.62 ± 0.99 h | 6.27 h | 6.49 ± 0.45 h | 5.45 ± 0.23 h | 3.27 ± 0.96 h | 6.52 ± 1.3 h | 13.5 ± 0.37 h | – | 14.4 ± 0.55 h | 13.8 ± 1.6 h |
| MTEQEKTSAVVEETREAVDTTSQPVATEKKSKNNTALILSAVAIAIALAAGIGLYGWGKQQAVNQTATSDALANQLTALQKAQESQKAELEGIIKQQAAQLKQANRQQETLAKQLDEVQQKVATISGSDAKTWLLAQADFLVKLAGRKLWSDQDVTTAAALLKSADASLADMNDPSLITVRRAITDDIASLSAVSQVDYDGIILKLNQLSNQVDNLRLADNDSDGSPMDSDGEELSSSISEWRINLQKSWQNFMDNFITIRRRDDTAVPLLAPNQDIYLRENIRSRLLVAAQAVPRHQEETYRQALENVSTWVRAYYDTDDATTKAFLDEVDQLSQQNISMDLPETLQSQAMLEKLMQTRVRNLLAQPAAGTTEAKPAPAPQADTPAAAPQGE | 6.17 ± 0.24 h | 5.965 ± 0.022 h | 6.63 ± 1.1 h | 6.31 ± 0.23 h | 6.06 ± 0.28 h | 6.54 ± 0.59 h | 3.15 ± 0.072 h | 5.98 ± 0.23 h | 11.3 ± 1.5 h | 6.09 ± 0.16 h | 13.7 ± 0.83 h | 12.8 ± 1.5 h |
| MVSRRVQALLDQLRAQGIQDEQVLNALAAVPREKFVDEAFEQKAWDNIALPIGQGQTISQPYMVARMTELLELTPQSRVLEIGTGSGYQTAILAHLVQHVCSVERIKGLQWQARRRLKNLDLHNVSTRHGDGWQGWQARAPFDAIIVTAAPPEIPTALMTQLDEGGILVLPVGEEHQYLKRVRRRGGEFIIDTVEAVRFVPLVKGELA [P0A7A5] | 5.57 ± 0.56 h | 5.04 ± 0.19 h | 3.95 ± 0.35 h | 4.65 ± 0.94 h | 4.71 ± 0.85 h | 3.64 ± 0.14 h | 2.7898 ± 0.0014 h | 4.83 ± 2.6 h | 8.88 ± 0.65 h | 3.85 ± 0.078 h | 6.43 ± 0.091 h | 10.2 ± 0.73 h |
| MDHAIYTAMGAASQTLNQQAVTASNLANASTPGFRAQLNALRAVPVEGLSLPTRTLVTASTPGADMTPGKMDYTSRPLDVALQQDGWLAVQTADGSEGYTRNGSIQVDPTGQLTIQGHPVIGEAGPIAVPEGAEITIAADGTISALNPGDPANTVAPVGRLKLVKATGSEVQRGDDGIFRLSAETQATRGPVLQADPTLRVMSGVLEGSNVNAVAAMSDMIASARRFEMQMKVISSVDDNAGRANQLLSMS | – | – | – | – | – | – | 0.504 ± 0.13 h | – | 3.33 ± 1.4 h | – | – | – |
